Experimental findings from article PMC6748616 (mAbs, 2019) are described below.

A word on the Kd: it is the free concentration of one partner at which half of the binding sites on the other are occupied at equilibrium, for simple one-to-one binding. Lower therefore signals a tighter complex.

Assay in all cases: SPR
Assay [1] addresses T1, IgV domain of cynomolgus SIRPα (Macaca fascicularis, EHH65484.1 allele).
T1 chain: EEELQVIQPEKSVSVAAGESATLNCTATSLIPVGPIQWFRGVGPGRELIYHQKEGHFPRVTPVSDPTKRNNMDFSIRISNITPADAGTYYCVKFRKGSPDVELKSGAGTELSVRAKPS

Assay [2] concerns the target IgV domain of human SIRPβ1 (Homo sapiens, SIRPβ1 NP_006056.2, UniProt O00241).
Assay [3] addresses IgV domain of mouse C57BL/6 SIRPα (Mus musculus, strain C57BL/6, UniProt P97797, strain).
The target in assay [4] is IgV domain of human SIRPγ (Homo sapiens, SIRPγ NP_061026.2, UniProt Q9P1W8).
In assay [5] the target is IgV domain of human SIRPα v1 (Homo sapiens (Human)., UniProt P78324-1).
IgV domain of human SIRPα v1, sequence (P78324 31-149): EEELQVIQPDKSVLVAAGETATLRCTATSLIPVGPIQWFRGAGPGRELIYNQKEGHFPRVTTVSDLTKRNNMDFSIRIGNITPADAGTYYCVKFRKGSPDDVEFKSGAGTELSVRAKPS
Assay [6] deals with IgV domain of human SIRPα v2 (Homo sapiens, SIRPα allele v2 …, strain).
Assay [7] concerns the target T2, IgV domain of mouse BALB/c SIRPα (Mus musculus, strain BALB/c, strain).
T2 chain: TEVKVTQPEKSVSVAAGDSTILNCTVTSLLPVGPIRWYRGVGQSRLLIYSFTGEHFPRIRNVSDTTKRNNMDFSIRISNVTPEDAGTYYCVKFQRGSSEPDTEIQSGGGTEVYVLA

Assay [8] deals with T3, IgV domain of mouse NOD SIRPα (Mus musculus, strain NOD, strain).
T3 chain: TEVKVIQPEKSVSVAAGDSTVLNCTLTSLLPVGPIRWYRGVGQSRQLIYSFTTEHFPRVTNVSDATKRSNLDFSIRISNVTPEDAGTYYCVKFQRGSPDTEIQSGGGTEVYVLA

B1: anti-SIRPα antibody clone 119, full-length IgG1 (antibody, V domains shown)
VH: DVQLLESGGGVVQPGGSLRLSCAASGFSFSNFAMTWVRQAPGEGLEWVSTIGSGDTYYADSVKGRFTISRDNSKNTLYLQMNSLRAEDTAVYYCAKDSTVSWSGDFFDYWGQGTLVTVSS
VL: EIVLTQSPATLSVSPGERATFSCRASQNVKNDLAWYQQRPGQAPRLLIYAARIRETGIPERFSGSGSGTEFTLTITSLQSEDFAVYYCQQYYDWPPFTFGGGTKVEIK
Regarding B1, the Kd amounted to 0.112 nM in assay [1]; 0.342 nM in assay [2]; 0.267 nM in assay [4]; 0.183 nM in assay [5]; 0.0682 nM in assay [6]. The binding result in assay [3] is on record as “no binding (tested: 100 nM)”.

B2: anti-SIRPα antibody clone 136, full-length IgG1 (antibody, V domains shown)
VH: not shown
VL: ETVLTQSPGTLTLSPGERATLTCRASQSVYTYLAWYQEKPGQAPRLLIYGASSRATGIPDRFSGSGSGTEFTLTISSLQSEDFAVYYCQQYYDRPPLTFGGGTKVEIK
Turning to B2, the dissociation constant Kd came out at 2.15 nM in assay [1]; 4.35 nM in assay [2]; 12.7 nM in assay [3]; 0.35 nM in assay [7]; 23.9 nM in assay [4]; 0.554 nM in assay [8]. Further, the Kd in assay [5] was 0.458 nM; in assay [6], 1.63 nM.

B3: anti-SIRPα antibody clone 3, full-length IgG1 (antibody, V domains shown)
VH: AVTLDESGGGLQTPGGALSLVCKASGFIFSDYGMNWVRQAPGKGLEFVAQITSGSRTYYGAAVKGRATISRDNRQSTVKLQLNNLRAEDTGIYFCARDFGSGVGSIDAWGNGTEVIVSS
VL: ALTQPASVSANLGGTVKITCSGSRGRYGWYQQRSPGSAPVTVIYRDNQRPSNIPSRFSSSTSGSTSTLTITGVQADDESVYFCGSYDGSIDIFGAGTTLTVL
As for B3, the equilibrium dissociation constant (Kd) in assay [1] worked out at 2.29 nM; in assay [2], 1.63 nM; in assay [3] it was 3.65 nM; in assay [7], 1.16 nM; in assay [4] it was 83.6 nM; in assay [8] it was 1.63 nM. Also, the dissociation constant (Kd) was determined as 0.162 nM in assay [5] and 0.0767 nM in assay [6].

B4: anti-SIRPα antibody clone 115, full-length IgG1 (antibody, V domains shown)
VH: DVQLVESGGGVVRPGESLRLSCAASGFSFSSYAMNWVRQAPGEGLEWVSRINSGGGGTDYAESVKGRFTISRDNSENTLYLQMNSLRAEDTAVYYCAKQYDWNSFFDYWGLGALVTVSS
VL: ETVLTQSPATLSVSPGERATLSCRASQTVGSKLAWHQQKPGQAPRLLIYDATNRATGISDRFSGSGSGTDFTLTISSLQTEDSAVYYCQQYYYWPPYRFGGGTKVEIK
On to B4, for which the equilibrium dissociation constant (Kd) in assay [1] came out at 2.41 nM; in assay [5], 0.426 nM; in assay [6], 1.86 nM. In addition, the binding result is reported as “binds” in assay [2], “no binding (tested: 100 nM)” in assay [3] and “binds” in assay [4].

B5: anti-SIRPα clone 218, scFv-Fc (scFv, V domains shown)
VH: DVQLVESGGGVVRPGESLTLSCTASGFTFTSSTMNWVRQAPGEGLDWVSSISTSGVITYYADSVKGRATISRDNSKNTLYLRLFSLRADDTAIYYCATDTFDHWGPGTLVTVSS
VL: ALTQPASVSANPGETVKITCFGSSGNYGWFQQKSPGSAPVTVIHYNNKRPSDIPSRFSGSKSGSTGTLTITGVRAEDEAVYFCGAWETGSATFGAGTTLTVL
Regarding B5, the Kd is 0.0599 nM in assay [1], 0.0636 nM in assay [4], 0.123 nM in assay [5] and 0.276 nM in assay [6]. Moreover, the binding result in assay [2] was “binds”; in assay [3] it was “no binding (tested: 100 nM)”.
